Target: the molecule itself
Assay: bead aggregation assay; EC-N-Cdh coated on Dynabeads (40 μg protein per 40 μl beads, o/n 4 °C); binding buffer 50 mM Tris-HCl pH 7.2, 100 mM NaCl, 10 mM KCl, 0.2% BSA; 2 mM CaCl2 (2 mM EDTA as control); room temperature; aggregate size imaged over 1 h

Protein	binding result
recombinant extracellular domain (EC) of N-cadherin (EC-N-Cdh) purified from ΔPOMGnT1 HEK293T cells (domain or fragment, mouse, UniProt P15116 160-724, looked up, N-glycans at Asn273, 325, 402, 572, 622, 651, 692: nongalactosylated complex-type N-glycans with a bisecting GlcNAc dominate at all sites except Asn651 and Asn692; galactosylation (-27% on average) and sialylation (-16% on average) decreased against the WT-derived protein; O-mannosylation as in the WT-derived protein, N-cadherin (neural cadherin), mouse, extracellular domain (EC1-EC5) amplified from mouse cDNA; same construct as m1, other host cells; Same polypeptide as m1; It differs only in the N-glycans, because it was made in POMGNT1 knockout cells; See the note of m1 for the limits read from the primers; also called ΔPOMGnT1-derived N-Cdh; N-Cdh from ΔPOMGnT1 cells; source: ΔPOMGnT1 (POMGNT1 knockout) …) DWVIPPINLPENSRGPFPQELVRIRSDRDKNLSLRYSVTGPGADQPPTGIFIINPISGQLSVTKPLDRELIARFHLRAHAVDINGNQVENPIDIVINVIDMNDNRPEFLHQVWNGSVPEGSKPGTYVMTVTAIDADDPNALNGMLRYRILSQAPSTPSPNMFTINNETGDIITVAAGLDREKVQQYTLIIQATDMEGNPTYGLSNTATAVITVTDVNDNPPEFTAMTFYGEVPENRVDVIVANLTVTDKDQPHTPAWNAAYRISGGDPTGRFAILTDPNSNDGLVTVVKPIDFETNRMFVLTVAAENQVPLAKGIQHPPQSTATVSVTVIDVNENPYFAPNPKIIRQEEGLHAGTMLTTLTAQDPDRYMQQNIRYTKLSDPANWLKIDPVNGQITTIAVLDRESPNVKNNIYNATFLASDNGIPPMSGTGTLQIYLLDINDNAPQVLPQEAETCETPEPNSINITALDYDIDPNAGPFAFDLPLSPVTIKRNWTINRLNGDFAQLNLKIKFLEAGIYEVPIIITDSGNPPKSNISILRVKVCQCDSNGDCTDVDRIVGAGLGTGA	binds
recombinant extracellular domain (EC) of N-cadherin (EC-N-Cdh) purified from WT HEK293T cells (domain or fragment, mouse, UniProt P15116 160-724, looked up, N-glycans at Asn190 (scarcely), 273, 325, 402, 572, 622, 651, 692 (complex-type, Asn651 high-mannose-type); nonelongated O-linked mannose at 15 sites (Table S6), N-cadherin (neural cadherin), mouse, extracellular domain (EC1-EC5) amplified from mouse cDNA; Cloned AscI/XhoI into pSecTag2 (Invitrogen); also called WT-derived N-Cdh; N-Cdh extracellular domain; source: HEK293T (WT), stably transfected with pMLHD7, secreted into serum-free medium, purified (HisTrap); not shown: His8, C-terminal, kept) DWVIPPINLPENSRGPFPQELVRIRSDRDKNLSLRYSVTGPGADQPPTGIFIINPISGQLSVTKPLDRELIARFHLRAHAVDINGNQVENPIDIVINVIDMNDNRPEFLHQVWNGSVPEGSKPGTYVMTVTAIDADDPNALNGMLRYRILSQAPSTPSPNMFTINNETGDIITVAAGLDREKVQQYTLIIQATDMEGNPTYGLSNTATAVITVTDVNDNPPEFTAMTFYGEVPENRVDVIVANLTVTDKDQPHTPAWNAAYRISGGDPTGRFAILTDPNSNDGLVTVVKPIDFETNRMFVLTVAAENQVPLAKGIQHPPQSTATVSVTVIDVNENPYFAPNPKIIRQEEGLHAGTMLTTLTAQDPDRYMQQNIRYTKLSDPANWLKIDPVNGQITTIAVLDRESPNVKNNIYNATFLASDNGIPPMSGTGTLQIYLLDINDNAPQVLPQEAETCETPEPNSINITALDYDIDPNAGPFAFDLPLSPVTIKRNWTINRLNGDFAQLNLKIKFLEAGIYEVPIIITDSGNPPKSNISILRVKVCQCDSNGDCTDVDRIVGAGLGTGA	binds
